In the DeepSol protein solubility set:

test: soluble on expression in E. coli; label from the status in PepcDB or PDB records

Sequence	soluble on expression in E. coli
MPVGRREQIVDCRSVMGLGEGGGLAQRGTFAEALKNDVVVVAMSPGRRHITKPVCEITYGIREAGIQTSVLVLNAGSGIPHDAPRGALGSTFGIKPEEAEQINRHKLCVVHFGNVISHIVYKAGLLLKYVEIPTIIVCQAPVDMEDLAKYGIKTRDVMPLEPKTKGTVVDIVTGVIRGESCPQTKIDEVIRKIKLHLNLNLEHHHHHH	soluble
MIDHNIRTGKAFFGRRKGKRLRNSQLVLIKKLFPTLDINLNNSVPLNLTSLFSRKVKEVRLEIGFGGGEHLLHEMKHFPQTGFIGIEPFINGMAKMLMSLEEHKQYQNQLRLYNDDATGLLDWLPNASLDGIDLFYPDPWPKKKHWKRRFINMKNLNRFARVLKTGKKFRFASDIESYVNWTLYHCSNHHSFEWEAKNPKDWKTPYTLWSGTRYEAKALREGRAPTYLTFIKK	not soluble
MNPKIEDSEFNWENEDIVMKLVDEKGKAHPVSKAELLESLESRKLGLETRVLDKYHENHVAFENVLVLDAPQDLETIVNLLLPWYMGKTLTLFEGPLNYPDSSRLAQIISKHNVDIVLGSDYNYSIPNPEYLKLFPVPSLKLVDLPNFESISNYLTISR	not soluble
MRILFSLFFFISLSLLAQPLSLSLKNAPTAEILSYLAEENMKNIVLSDQIDKNTTLRIENSHFDEIVESIVRANQLSKRKEKQIYFIGHLKEDKAIEKIDNGDKPKLITQTIKLDYAKASEVIESLTKGKGNGNVLSEQGYLYFDERSNSLIIKDSPDSMKHILALIKNLDKPTEQIAIEARIVTISSQDLQELGVRWGMFSPSDDYHKVASSLETKGLTTANHLNVNFPVNNATSLALQVARINSRVLDLELTALEQENNVEIIASPRLLTTNKKPASIKQGAEIPYVLYNRKDEVKNIEFKEAVLGLQVTPHISADNQILLDLVVTQNSPNLNNTAVNGLITIDKQELNTQVFAKHGETIVLGGIFQHLTAKGEDRVPLLGSIPVLKKLFSHSTDKITKRELVIFVTPYLVQDKYKKLEHHHHHH	not soluble
MAHHHHHHMASSSDADGKEVGSSGEGNRATGGKWRRPSLAQQRARRAQLPPAFDVVHWNDEDISRGHLLRVLHRDTFVVLDYHRQARMLTEEGNKAERVVSVMLPAVYTARFLAVLEGRSEKVEVHSRYTNATFTPNPAAPYTFTLKCTSTRPAQQKQQVAGEEGDETFEWTVEFDVAESLMLQRFLTQALHYNTGFARTSV	soluble
MGHHHHHHSHMGEGQIPPAHDSSIFISCDVLLKKISINTRTWLPCSISCSASLLENSPFYFTLFVCDYISHSFHLLINIFSEIMSYHGNGGYNAPYGGHGGYAPPPVHGAPGYMPPTVVHTDGGHHGHVDTHHHEESHHGEHHGGHHGVQHYESHHESHHHGGHHGHH	not soluble
MGSDKIHHHHHHVRVPLLDRDHPRYGNDRFWPGMRAELAKLWRERGHAPILNPPRPRARTHKIQESRSMHLEVLRVPPTTADPEMADRPPLVFVHGAFAGAWCWRETFMPWFAARGWDTHALSLRGHGASDGAERLDSTRLADYADDLRRVIDELDRPPVLIGHSMGGMVVQKVLEDTQAAAAVLLASVPPTGLFSGSVLMALRHPLLCMALWRIQTFGPEEASLRMVEAGLFSTPLDAREAERYTALLQNESSRVVLDMTWFDVPRRRCPQELPLLVLGAEDDAFVPPIEVLATAAFHGTTAQLLPDIGHAMMLDRGWEKTASVMEEWLRCSAF	not soluble
MGNGGILCALKTDSCSMLVISNNVHLPDAEIELTAIRAQGAGGQNVNKVSSAVHLRFDIPASSLPPFYKERLLALRDSRITSDGVIILKAQQYRTQEQNRADALERLTELILSAIKVEKKRRPTKPTLGSKKRRLETKAKRGSIKAGRGKVDFLEHHHHHH	soluble
MNREGAPGKSPEEMYIQQKVRVLLMLRKMGSNLTASEEEFLRTYAGVVNSQLSQLPPHSIDQGAEDVVMAFSRSETEDRRQ	soluble
SNRVNDPLIFIRDIKPGLKNLNVVFIVLEIGRVTKTKDGHEVRSCKVADKTGSITISVWDEIGGLIQPGDIIRLTRGYASMWKGCLTLYTGRGGELQKIGEFCMVYSEVPNFSEPNPDYRGQQNKGAQSEQKNNSMNSNMGTGTFGPVGNGVHTGPESREHQFSHAGRSNGRGLINPQLQGTASNQTVMTTISNGRDPRRAFKR	soluble
MGSDKIHHHHHHMSRFVLITPDVSFDGRLRQAVAGGLQGGVQTFFTSLLPADPNDLFAHLDQERPEVLILGPDVPVEEALRLATVMNVRFPELSVILASEPDPDFILQAMRAGIRDILSPDSDAAQIRVLLERASQQFAGRYRVQAAAPMTDTNKGLVIGVFSPKGGVGKTTIATNIAVGLGKIAPMSVVIVDLDLQFGDVASALYLDPQHTVTDAVSPAASQDSLVLKAFLTVHPASIYAVCAPPTPVDADEITPEQVSRLLEQLSEQFQYVVVDTAPGLPEIGLAAMEQCTDVVWVSGMDIPSVRGLRSGLDVLRQLDILPETRHVVLNMADSKLGLTVQDLESTIGAPVDVSIPRSRAVALSTNRGIPVLQESAKDPATKGLNQLVNRFNPAWRATSQRKLHRRVVV	not soluble
NTDIRNIPVGVVDQSGSTAGRIITQSVKVTQVVDIKETYATAQEAEQAIQDGIVRAVLILPSDLTQRMMQGRELGQWIVDGSDTMISSAILSLQTMPLTDFDFEIRPAPSKTFEVALYYNPSRRSAVN	not soluble
ECGHISVSAPIVHLGDPITASCIIKQNCSHLDPEPQILWRLGAELQPGGRQQRLSDGTQESIITLPHLNHTQAFLSCSLNWGNSLQILDQVELRAGYPPAIPHNLSCLMNLTTSSLICQWEPGPETHLPTSFTLKSFKSRGNCQTQGDSILDCVPKDGQSHCSIPRKHLLLYQNMGIWVQAENALGTSMSPQLCLDPMDVVKLEPPMLRTMDPSPEAAPPQAGCLQLSWEPWQPGLHINQKCELRHKPQRGEASWALVGPLPLEALQYELCGLLPATAYTLQIRCIRWPLPGHWSDWSPSLELRTTERAAAPR	soluble
YPQVIVDHPFLYLIRNRKSGIILFMGRVMNPHH	soluble
MRSVTLPLLMFCLGLAACSGDGGRRPSTCEVISPPDVMVPTEQNRQRVEQQSSGDPTAGQKPVECP	not soluble
MTKALFFDIDGTLVSFETHRIPSSTIEALEAAHAKGLKIFIATGRPKAIINNLSELQDRNLIDGYITMNGAYCFVGEEVIYKSAIPQEEVKAMAAFCEKKGVPCIFVEEHNISVCQPNEMVKKIFYDFLHVNVIPTVSFEEASNKEVIQMTPFITEEEEKEVLPSIPTCEIGRWYPAFADVTAKGDTKQKGIDEIIRHFGIKLEETMSFGDGGNDISMLRHAAIGVAMGQAKEDVKAAADYVTAPIDEDGISKAMKHFGII	soluble
ANATKNTPSEDQQLANIIETHEAFYLKSSPFNQPEVIGNNAKLPDLSADFLLAQYQQGLAIYQQLIALDNEKLTQENQINFSVLTYSLKNQLDSYINKEHYMPLTAESGFHVWIANISKQVDFKTFTDYQDYLVRLSLLPAYFSQQTYWMKKGLKSGISQPKIVLKGFEQSIAAYIKEDVTESSYYQPFNKMSAFITTSQKKDLQQQAKQVLSTKVMPAYTAYYDFMVNVYQPNARDNIAAISLPNGKEYYQNRLVHYTTLPMTATEVHQQGVGEVKRIRVEMNAIIEQVNFDGSFSEFVEFLRTDPQFYASTPTELLKEASFIAKKMDAKLPRLFKTLPRTPYGVMAVPANIAPKYTTGRYAGSSRDDQPGNYWVNTYRLDRRPLYVLTALTLHEAVPGHHLQISLAKEMKDVAKFRNRSYISAFGEGWGLYSEYLGIEAGMYEDPYHNFGRLTYEMWRACRLVVDTGMHTQGWSREQAMDFLASNTALSLHNVKTEIDRYISWPGQALSYKIGELTIKRLRKEAEQTLGEDFDLREFHDQILKHGSMPLSMLDKIITQYINDKDNSVTK	not soluble
MMKTRGFELITDYTDENLLPKRETAHAAGYDLKVAERTEISAGAIVLVPTGVKAYMQVGEVLYLFDRSSNPRKKGLVLINSVGVIDGDYYNNPNNEGHIFAQMKNMTDQTVVLEAGERVVQGVFMPFLLIDGDKATGTRTGGFGSTGG	soluble
SLNGRPTTPNGAAGKWGDYRKCDTPKRTVDHMLNHIADTHSDIDFIIWTGDLPPHDVWNQTKEENLKVLKETVTQMTEKFPGIPIFPALGNHESAPVNSFPPPYVQQVDSSIAWLYDELDVQWRRWLPASVSHTVRRGAFYSVLVRPGYRIISLNMNYCNNKNWWLLLNSTDPATELQWFIYELQSAEFAGEKVHVIGHIPPGHSDCLKVWSRNYYKIVSRFESTITAQFFGHTHFDEFEVFYDPHDLSRATSIAYIGPSVTPYNDLNPGYRIYYIDGDHDETTRLVVDHESWIMNLKEANLYDYPIWYKLYSTRAAYGMKGLRPADWDQLINNMTDSKELFDLYYKHYWKASPVKPECDYECRKRILCDAKSGRSHDRKYFCEEVEAKIDESNKGWKDWLFS	not soluble
MAHHHHHHMPSDRVPSGDGFNNPYGNTTLVGNWLEDRLQQRIVHKRRGGAAATWCAQGIFEDPAVTMARHPAEAQAALLHSTYDVDYGHRPGRTQRTASGGVDNSAAASTLMRGSKHNANAAGPGSASSTAKGGIDKVLLFSIDPVADPAAPLPLSTNADTYGAFYYGNDNGSVDNNGARHAGSATGATTSSPADQGDGGATAPPADADRNLYDSVSRAVAAAAAPSSSFRMPRAPMQRGANADATFSSSPVPRRHMLSLGVATTSTFGHTGWTLASSSATSAADHVGAAPWRPLQRHRLPNKDSMDDERWCSSKQAADTPVEHFTLQQRLPPVRM	not soluble
GPGSMSTSEGNAANRFAGRVKQAEDPFVKALRIKVNGLKRNMKDLEFAKKEVVCETARLESIRDTNPDRVKQQENVIAEAQMMIPHSENRVRAAIKDLQDFLDTHENDAEEGELMQDARTTLESAQLTLSKQ	soluble
MENKSIAIFIDAENIPAKYAKSIFDIASDYGEVIIKRIYGDWTQKNIQGWREQIAEYSLIAMQQFNFAANKNSSDMYLITEIMSIFYEKNIDIFVIVSSDSDYTSLIQKLRENKKQVIGMGLEKSIKSYVNAFSEFFYLDKDESKKEDILSKDYLRALINITEQLIDEKGRAEYAQIRTNMNRKYSDFHPQNYGFKNFRALIQKFLPKMKKFEEEREKNIYFLVKKDYESYYLEHHHHHH	not soluble
MSEDDPRPLHIRRQGLDPADELLAAGALTRVTIGSGADAETHWMATAHAVVRQVMGDHQQFSTRRRWDPRDEIGGKGIFRPRELVGNLMDYDPPEHTRLRRKLTPGFTLRKMQRMAPYIEQIVNDRLDEMERAGSPADLIAFVADKVPGAVLCELVGVPRDDRDMFMKLCHGHLDASLSQKRRAALGDKFSRYLLAMIARERKEPGEGMIGAVVAEYGDDATDEELRGFCVQVMLAGDDNISGMIGLGVLAMLRHPEQIDAFRGDEQSAQRAVDELIRYLTVPYSPTPRIAREDLTLAGQEIKKGDSVICSLPAANRDPALAPDVDRLDVTREPIPHVAFGHGVHHCLGAALARLELRTVFTELWRRFPALRLADPAQDTEFRLTTPAYGLTELMVAW	soluble
MNKLAVLYAEHIATLQKRTREIIERENLDGVVFHSGQAKRQFLDDMYYPFKVNPQFKAWLPVIDNPHCWIVANGTDKPKLIFYRPVDFWHKVPDEPNEYWADYFDIELLVKPDQVEKLLPYDKARFAYIGEYLEVAQALGFELMNPEPVMNFYHYHRAYKTQYELACMREANKIAVQGHKAARDAFFQGKSEFEIQQAYLLATQHSENDNPYGNIVALNENCAILHYTHFDRVAPATHRSFLIDAGANFNGYAADITRTYDFTGEGEFAELVATMKQHQIALMNQLAPGKLYGELHLDCHQRVAQTLSDFNIVDLSADEIVAKGITSTFFPHGLGHHIGLQVHDVGGFMADEQGAHQEPPEGHPFLRCTRKIEANQVFTIEPGLYFIDSLLGDLAATDNNQHINWDKVAELKPFGGIRIEDNIIVHEDSLENMTRELRLRLTTHSLRGLSAPQFSINDPAVMSEYSYPSEPLSYEEEIKKSTFIVHVRTRRILVRRRTLSPILIAVTPMPAITAGLM	soluble
